Source: article PMC6853982

Molecular target: GFP-AtEH1/Pan1 (Arabidopsis) (UniProt Q9LM78)
Assay: FRET or BRET; FRET-FLIM in N. benthamiana leaf cells transiently co-expressing the GFP donor and RFP acceptor fusions; GFP-AtEH1/Pan1 alone as donor control; whole field images

UniProt Q9LM78, sequence (Q9LM78 entry or part of it): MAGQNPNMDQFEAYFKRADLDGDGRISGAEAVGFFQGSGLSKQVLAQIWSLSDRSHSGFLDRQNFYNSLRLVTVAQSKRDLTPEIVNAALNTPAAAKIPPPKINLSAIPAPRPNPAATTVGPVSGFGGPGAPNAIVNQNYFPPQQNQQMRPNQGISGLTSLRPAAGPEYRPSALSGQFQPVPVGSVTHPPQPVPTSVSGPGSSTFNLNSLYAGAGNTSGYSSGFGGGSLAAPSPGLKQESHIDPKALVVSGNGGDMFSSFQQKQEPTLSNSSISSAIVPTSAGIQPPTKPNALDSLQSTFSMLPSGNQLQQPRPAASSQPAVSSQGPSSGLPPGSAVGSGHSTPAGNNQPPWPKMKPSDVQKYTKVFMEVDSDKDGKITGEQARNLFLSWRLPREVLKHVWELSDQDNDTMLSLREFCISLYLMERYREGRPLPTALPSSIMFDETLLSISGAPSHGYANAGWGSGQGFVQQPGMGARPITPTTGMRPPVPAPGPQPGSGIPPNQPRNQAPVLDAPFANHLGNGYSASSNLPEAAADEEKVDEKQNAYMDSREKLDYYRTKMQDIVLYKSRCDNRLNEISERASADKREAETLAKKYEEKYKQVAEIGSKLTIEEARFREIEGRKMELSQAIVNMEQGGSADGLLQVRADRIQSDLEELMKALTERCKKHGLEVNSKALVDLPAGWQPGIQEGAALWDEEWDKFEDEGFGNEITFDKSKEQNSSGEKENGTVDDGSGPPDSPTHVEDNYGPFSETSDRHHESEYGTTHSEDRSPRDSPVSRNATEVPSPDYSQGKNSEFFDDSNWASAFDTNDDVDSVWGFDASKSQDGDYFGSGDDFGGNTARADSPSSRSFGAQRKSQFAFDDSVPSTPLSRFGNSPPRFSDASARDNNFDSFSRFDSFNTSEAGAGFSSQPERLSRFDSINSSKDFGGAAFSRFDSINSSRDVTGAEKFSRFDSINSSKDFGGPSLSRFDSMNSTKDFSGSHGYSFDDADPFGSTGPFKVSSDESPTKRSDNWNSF

fluorescence life-time of the GFP donor in the presence of the RFP acceptor: 2.45 ns
Substance: RFP-AtEH2/Pan1 (natural protein)
